Article PMC8692152, “Cellular Id1 inhibits hepatitis B virus transcription by interacting with the novel covalently closed circular DNA-binding protein E2F4” (International Journal of Biological Sciences, 2022)

Target: the molecule itself
Assay: SEC; Superdex 75, 50 mM Tris-HCl pH 8.0, 300 mM NaCl; calibrated with molecular mass standards

B1: E2F4_(1-88) (domain or fragment)
chain: not shown
notes: The section on ITC sample preparation describes an E2F4_(1-88) protein purified on a GST column and cut with 3C protease; also called pET28-E2F4_(1-88)
  stoichiometry N: 2
